Assay results from PMC5344419, “The structure of FKBP38 in complex with the MEEVD tetratricopeptide binding-motif of Hsp90” (PLoS ONE, 2017).
“Also recorded” adds a separate entry of the source.

B1: FKBP8: immunophilin with N-terminal glutamate rich region, PPIase domain and tetratricopeptide domain; construct not specified at the place (protein)
chain: MASCAEPSEPSAPLPAGVPPLEDFEVLDGVEDAEGEEEEEEEEEEEDDLSELPPLEDMGQPPAEEAEQPGALAREFLAAMEPEPAPAPAPEEWLDILGNGLLRKKTLVPGPPGSSRPVKGQVVTVHLQTSLENGTRVQEEPELVFTLGDCDVIQALDLSVPLMDVGETAMVTADSKYCYGPQGRSPYIPPHAALCLEVTLKTAVDGPDLEMLTGQERVALANRKRECGNAHYQRADFVLAANSYDLAIKAITSSAKVDMTFEEEAQLLQLKVKCLNNLAASQLKLDHYRAALRSCSLVLEHQPDNIKALFRKGKVLAQQGEYSEAIPILRAALKLEPSNKTIHAELSKLVKKHAAQRSTETALYRKMLGNPSRLPAKCPG
modifications: left off: His6, C-terminal, kept
notes: immunophilin with N-terminal glutamate rich region, PPIase domain and tetratricopeptide domain; construct not specified at the place
B2: FKBP^92-380: fragment containing both the immunophilin and TPR domain (protein)
chain: EWLDILGNGLLRKKTLVPGPPGSSRPVKGQVVTVHLQTSLENGTRVQEEPELVFTLGDCDVIQALDLSVPLMDVGETAMVTADSKYCYGPQGRSPYIPPHAALCLEVTLKTAVDGPDLEMLTGQERVALANRKRECGNAHYQRADFVLAANSYDLAIKAITSSAKVDMTFEEEAQLLQLKVKCLNNLAASQLKLDHYRAALRSCSLVLEHQPDNIKALFRKGKVLAQQGEYSEAIPILRAALKLEPSNKTIHAELSKLVKKHAAQRSTETALYRKMLGNPSRLPAKCPG
modifications: left off: His6 (from the vector pDMXV4), C-terminal, kept
notes: fragment containing both the immunophilin and TPR domain

Tested on: yeast Hsp90
Assay: ATPase activity of yeast Hsp90
Format: biochemical
Details: ATPase assay, 5-molar excess of FKBP^92-380 over Hsp90 (Fig 7)

Molecule | effect on ATPase activity of Hsp90
B1 | did not substantially influence; also recorded: did not show any substantial effect
B2 | did not substantially alter
